Source: the supplement of paper PMC9170038

Test system: MS2 coat protein
Assay: apparent KD of MS2 coat protein; designed switch direction (-1 OFF switch, 1 ON switch): 1; higher = weaker reporter binding
Outline: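 For each design, the apparent KD is the median over clusters of curves fitted to normalised cluster fluorescence. Clusters held RNA switches with common flanks, transcribed on Illumina chips by stalled E. coli RNA polymerase. These were titrated with SNAP-549-labelled MS2 coat protein, doubling from 0.7 or 1.5 nM to 3 µM, without input, with 200 uM small-molecule ligand, or with an oligonucleotide input.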

[1] = input ligand: microRNA oligo, concentration not stated
[2] = Eterna round: R95, input ligand: FMN 200 uM
[3] = Eterna round: R95, input ligand: microRNA oligo, concentration not stated
[4] = Eterna round: R95, input ligand: none

Sequence | apparent KD of MS2 coat protein [1] [nM] | apparent KD of MS2 coat protein (input ligand: FMN 200 uM) [nM] | apparent KD of MS2 coat protein (input ligand: none) [nM] | apparent KD of MS2 coat protein [2] [nM] | apparent KD of MS2 coat protein [3] [nM] | apparent KD of MS2 coat protein [4] [nM]
UUGAGGAAUUAAGGAUAUUGAGUACAUAUGUUUAACAUGAGGAUCACCCAUGUGGGUUGCGGUAUCGAGAAGGUAAAUUACAAG [Mat - same State NG 2 - JL mod - D74] (Eterna round: R96, puzzle: Same State NG 2) | 97.8 |  |  |  |  | 
CGAAAGAGGUGAGGAUAUGCAGAGGAUCACCCUGUAGAAGGCAUCAGGUGAGGAUAUGCAGAGGAUCACCCUGUAGAAGGCAUC [pwkr ssNG DX.12] (Eterna round: R96, puzzle: Same State NG 1) | 336 | 151 | 596 |  |  | 
CCUGCGAUAAGCGAGCGAACAUGAGGAUCACCCAUGUGGCGGCAGGAUAUGGGUGACCCAGCGACUCAGAAGGGCCGAAGCUAA [Eternabot solution 8] (Eterna round: R96, puzzle: Same State NG 3) | 11.9 | 49.1 | 23.2 |  |  | 
UGAAUGGUGAUAGGAUAUACAUGAGGAAUCCUCGUAGAAGGAUCACGACAUGAGGAUCACCCAUGUAGCCGUCCGUAGACGGCU [salish99_SSNG1_r04_003] (Eterna round: R96, puzzle: Same State NG 1) | 75.9 | 192 | 255 |  |  | 
GGAGCCGGCCUAGGAUAUUUCAUAAAAACACAUGAGGAUCACCCAUGUAGGCCAGAAGGCCUUGGGAAGAAGGAGGUCGGCUCC [Loop Effect - C29] (Eterna round: R96, puzzle: Same State NG 2) | 18.3 | 10.6 | 23.6 |  |  | 
CGCGGUAAGGAAGGAUAUGGGACGAAAACGUACCUAGAAGGUCCACAUGAGGAUCACCCAUGUACCAAGAAAGCCGCUCAAUUA [Uszabeon] (Eterna round: R96, puzzle: Same State NG 1) | 260 | 89.8 | 334 |  |  | 
GUUACAUGAGGAUCACCCAUGUAUGUGUGGGAGUAAGUGUCUUAGGAUAUCUAGUAUUUAAUUAAAGAGAAGGAAGAUUGUUGU [JMF's solution 66] (Eterna round: R96, puzzle: Same State NG 3) | 74.6 | 126 | 116 |  |  | 
AGUCCAGCCUGAGCUGGACAAAAGCAUGUACAUGAGGAUCACCCAUGUUCAUGUACAAGCUUUUUGCUCGUCUUAGU [salish99_208a_r3_061] (puzzle: Sensor for hsa-mir-208a) |  |  |  | 481 | 15.1 | 528
AGUCCAGCCUGAGCUGGACUGAAGCAUGUACAUGAGGAUCACCCAUGUUCAUGUGCAAGCUUUUUGCUCGUCUUAUG [JL-shm-2.03 JL mod] (puzzle: Sensor for hsa-mir-208a) |  |  |  | 42 | 11.5 | 41.8
GCUAGAAAUAAAGCCAACAUGAGGAUCACCCAUGUAUGUUGGUAGGAUAUCGUAUGCAAAGCAUACGAGAAGGGCUAAACUAGC [Mat - Same State NG 3 - JL Mod - D18] (Eterna round: R96, puzzle: Same State NG 3) | 77.5 | 91.6 | 93.7 |  |  | 
UAGAGAGGAAGCGAGGAUAUCGUGGGAGGAACAUGAGGAUCACCCAUGUGUGAUGUUGAGAGGGACGAGAAGGCGCUGGAAAUUA [JR_SS2_Sub081] (puzzle: Same State 2) |  |  |  | 99.1 | 126 | 174
AAAAUGAGUAUAUGAAAACAAGCUUUUUAACAUGAGGAUCACCCAUGUACUCGUCUUAUAAGCAGUCGAAAGACUGC [hsa-mir-208a sensor: 77] (Eterna round: R96, puzzle: Sensor for hsa-mir-208a) | 17.2 | 94.8 | 96.6 |  |  | 
UACAUGAGGAUCACCCAUGUAGUCCAUGCACCGGACCGAAGCGAGGAUAUGGUCUGCAUCGGUGGCCAGAAGGCGCUUCCAGAA [Eternabot solution 26] (Eterna round: R96, puzzle: Same State NG 3) | 21.3 | 24.7 | 46.7 |  |  | 
UUAAUUUACUGAGGAUAUCGUGUCGACUGAGUUGACAUGAGGAUCACCCAUGUGAGAAGUGGUAUCGAGAAGGCAGUUUUCAUA [JR_SSNG2_Sub024] (Eterna round: R96, puzzle: Same State NG 2) | 59 | 17.2 | 89.6 |  |  | 
CCAGGACAUGAGGAUCACCCAUGUGCUUAAUAUGGAGAAUCUCAGGAUAUCAUGAGGAUCACCCAUGAGAAGGGAGAUCCGAGG (Eterna round: R96, puzzle: Same State NG 3) | 118 | 144 | 152 |  |  | 
AUAAGGCAAGCUUUUUUCUCGUAGUGUAAACAUGAGGAUCACCCAUGUGCCCACCCUGGACCUUUGGAUCGCAGAAA [Geatxe] (puzzle: Sensor for hsa-mir-208a) |  |  |  | 30.5 | 25.9 | 25.9
AGUCCAGCAUGAGCUGGACAAAAGCAUGUACAUGAGGAUCACCCAUGUUCAUGUACAAGCUUUUUGCUCGUCAAAAG [Mat - hsa-mir-208a - Mod of JL - 70] (puzzle: Sensor for hsa-mir-208a) |  |  |  | 225 | 19.6 | 320
AACGUGUAGGAAGGAUAUAUUGUUCAAGGGAUUGCAAUCUCUAACAUGAGGAUCACCCAUGUAGAGUAGAAGGUCCACCGCAGG [Eternabot solution 40] (Eterna round: R96, puzzle: Same State NG 2) | 13.5 | 14.1 | 19.2 |  |  | 
GUUACAUGAGGAUCACCCAUGUAUGUGUGGGAGUAAGUGUCUUAGGAUAUCUAUUAUUUAAUUGAAGAGAAGGAAGAUUGUUGU [JMF's solution 26] (Eterna round: R96, puzzle: Same State NG 3) | 95 | 160 | 112 |  |  | 
GGAAUCUCCAGAGAGGAUAUGCGGCGUUAAACAUGAGGAUCACCCAUGUCCUUCGAAUGGGUAACGCAGAAGGCUCUACGGUUCC [Shapeless] (puzzle: Same State 2) |  |  |  | 115 | 594 | 1220
GGUUUAGUCAGGUGCAGUUGCACCUGAAAACAUGAGGAUCACCCAUGUUUGGGACAAGCUUUGCUCCUCGUCUUGCA [Orinen] (puzzle: Sensor for hsa-mir-208a) |  |  |  | 341 | 70.6 | 545
AAAAUGUGAUGUUACAUGAGGAUCACCCAUGUAGUGACAACUAAGGAUAUCUGAAAAAAAGGAGAGGAGAAGGUAGGAUCACAA [AK SSNG3-V2-16.1] (Eterna round: R96, puzzle: Same State NG 3) | 26.4 | 25.7 | 33.2 |  |  | 
GGUCCAUCAUGAGGAUAUGGCACCUUAUUGGUGCCAGAAGGCAUGUAAAUUAUAAUAAAACAUGAGGAUCACCCAUGUUGGACC [Eli NG1ss - 97] (Eterna round: R96, puzzle: Same State NG 1) | 19.5 | 857 | 78.4 |  |  | 
